Laboratory results reported in patent publication US20250304690A1 (HANGZHOU VIROMAB BIOTECH, published 2025).
Substitutions are numbered along the chain they refer to. Read-outs that look alike come from different tables or passages of the source.

Experiments:
[1] = biological target: T1, CD3 on Jurkat cells and on human T cells (human, UniProt P07766 23-207); experiment: flow cytometry on Jurkat cells
T1 construct: whole, on cells; also called CD3 end; CD3 antigen
Protocol: Jurkat cells were plated, washed with a FACS buffer, and centrifuged at 1200 rpm for 3-5 min. Then diluted antibodies with different concentrations were added at 100 L/well. The cells were incubated at 4° C. for 0.5 h, centrifuged at 1200 rpm for 3-5 min, and washed with a FACS buffer. Then a diluted goat anti-human IgG (FITC, Abcam/ab97224) antibody was added. The cells were incubated at 4° C. for 0.5 h, centrifuged at 1200 rpm for 3-5 min, washed with a FACS buffer, and resuspended in 50 μL of a FACs buffer, and assays were performed using a flow cytometer.

[2] = biological target: TT3 labeling polypeptide on cells; experiment: flow cytometry on HCT116-TT3 cells
hCD3 (human CD3 antigen) = hCD3 (human CD3 antigen) (human, UniProt P07766 23-126); experiment: ELISA, plate-coated hCD3
Protocol: The activity of the prepared humanized antibodies was assessed by ELISA as follows: hCD3 (human CD3 antigen) was diluted to 0.5 g/mL using a coating solution and then added to a 96-well plate at 100 μL/well, and the plate was incubated overnight at 4° C. The plate was washed with PBST. Then 200 µL of a blocking solution was added to each well, and blocking was performed at a temperature of 37° C. for 2 h. The plate was washed with PBST. Then diluted antibodies (the initial concentration was 40 nM, and serial dilution was performed in a 1:6 ratio) were added at 100 L/well, and the plate was incubated at a temperature of 37° C. for 2 h. The plate was washed with PBST. Then an HRP-labeled goat anti-human IgG was added at 100 L/well, and the plate was incubated at 37° C. for 1 h. The plate was washed with PBST, and TMB was added at 100 L/well. Color development was performed at 37° C. for 10-20 min, and 50 µL of 2 M H₂SO₄ was added to each well to stop the reaction. Readings were taken at 450 nm.

[3] = biological target: T1, CD3 on Jurkat cells and on human T cells; experiment: flow cytometry on Jurkat cells; remark: listed apart in the source
Protocol: (§1) Then diluted antibodies with different concentrations were added. The cells were incubated at 4° C. for 0.5 h, centrifuged at 1200 rpm for 3-5 min, and washed with a FACS buffer. Then a goat anti-human IgG secondary antibody (manufacturer: Abcam, ab98596) was added at 100 L/well. The cells were incubated at 4° C. for 0.5 h, centrifuged at 1200 rpm for 3-5 min, washed with a FACs buffer, and resuspended in 50 μL of a FACs buffer, and assays were performed using a flow cytometer.

CD3 on 293T-CD3 cells = experiment: flow cytometry on 293T-CD3 cells
Chain of CD3 on 293T-CD3 cells (chain, as listed by the source): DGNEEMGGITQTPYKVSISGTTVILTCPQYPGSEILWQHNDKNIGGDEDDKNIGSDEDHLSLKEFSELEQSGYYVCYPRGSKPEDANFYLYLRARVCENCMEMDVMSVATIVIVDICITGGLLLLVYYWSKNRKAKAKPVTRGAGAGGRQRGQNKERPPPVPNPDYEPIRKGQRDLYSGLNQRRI
Protocol: as §1

Chain of hCD3 (human CD3 antigen) (P07766 23-126): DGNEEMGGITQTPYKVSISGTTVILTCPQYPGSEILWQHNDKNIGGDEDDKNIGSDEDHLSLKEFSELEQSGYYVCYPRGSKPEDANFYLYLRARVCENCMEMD
Chain of TT3 labeling polypeptide on cells (P01732 other isoform, or with tags, fused parts or gaps limits assumed): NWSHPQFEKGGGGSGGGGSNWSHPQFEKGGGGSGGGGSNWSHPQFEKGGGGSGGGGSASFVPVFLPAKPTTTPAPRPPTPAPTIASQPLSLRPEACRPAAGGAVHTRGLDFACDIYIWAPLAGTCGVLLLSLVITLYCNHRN
T1 sequence (P07766 23-207): as the sequence (chain, as listed by the source) above

B1: BK-A-101 (bispecific antibody, human IgG1, kappa)
heavy: not shown
light: QAVVTQESALTTSPGETVTLTCRSSTGAVTTSNYANWVQEKPDHLFTGLIGGTNKRAPGVPARFSGSLIGDKAALTITGAQTEDEAIYFCALWYSNLWVFGGGTKLTVLRTVAAPSVFIFPPSDEQLKSGTASVVCLLNNFYPREAKVQWKVDNALQSGNSQESVTEQDSKDSTYSLSSTLTLSKADYEKHKVYACEVTHQGLSSPVTKSFNRGEC
notes: also called bispecific antibody; the bispecific antibody
Binder B1 has an EC50 [1] of 0.8 nM and an EC50 [2] of 15.8 nM.

B2: CD3 Ab07 (antibody, human IgG1, kappa, V domains shown)
VH: EVQLVESGGGLVQPGGSLRLSCAASGFTFNTYAMNWVRQAPGKGLEWVARIRSKYNNYATYYADSVKDRFTISRDDSKNILYLQMNSLKTEDTAVYYCVRHGNFGNSYVSWFAYWGQGTLVTVSA
VL: QAVVTQEPSLTVSPGGTVTLTCRSSTGAVTTSNYANWVQQKPGQAPRGLIGGTNKRAPWTPARFSGSLLGGKAALTLSGAQTEDEAEYYCALWYSNLWVFGGGTKLTVLR
notes: also called humanized anti-CD3 monoclonal antibody
B2 showed an EC50 (hCD3 (human CD3 antigen)) of 0.0129 nM, an EC50 [3] of 2.42 nM and an EC50 (CD3 on 293T-CD3 cells) of 9.02 nM.

B3: CD3 Ab13 (antibody, human IgG1, kappa, V domains shown)
VH: B2 VH with V95M
VL: B2 VL with L77I, S78T
notes: as for B2
With B3 the EC50 (hCD3 (human CD3 antigen)) was 0.0099 nM, the EC50 [3] was 3.19 nM and the EC50 (CD3 on 293T-CD3 cells) was 12.4 nM.

B4: CD3 Ab05 (antibody, human IgG1, kappa, V domains shown)
VH: B2 VH with I80S
VL: B2 VL with Q40E, T60V, G71D
notes: as for B2
With B4 the EC50 (hCD3 (human CD3 antigen)) was 0.0099 nM, the EC50 [3] was 1.02 nM and the EC50 (CD3 on 293T-CD3 cells) was 4.27 nM.

B5: CD3 Ab06 (antibody, human IgG1, kappa, V domains shown)
VH: B2 VH
VL: B2 VL with T82P
notes: as for B2
B5 gave an EC50 (hCD3 (human CD3 antigen)) of 0.0126 nM, an EC50 [3] of 3.31 nM and an EC50 (CD3 on 293T-CD3 cells) of 13 nM.

B6: CD3 Ab02 (antibody, human IgG1, kappa, V domains shown)
VH: B2 VH with I80S
VL: B2 VL
notes: as for B2
B6 was tested, and the EC50 (hCD3 (human CD3 antigen)) was 0.0117 nM, the EC50 [3] was 2.64 nM and the EC50 (CD3 on 293T-CD3 cells) was 12.3 nM.

B7: CD3 Ab12 (antibody, human IgG1, kappa, V domains shown)
VH: B2 VH with V95M
VL: B2 VL
notes: as for B2
For B7, the EC50 (hCD3 (human CD3 antigen)) was 0.0095 nM, the EC50 [3] was 3.52 nM and the EC50 (CD3 on 293T-CD3 cells) was 15.8 nM.

B8: CD3 Ab09 (antibody, human IgG1, kappa, V domains shown)
VH: B2 VH
VL: B2 VL with T60V, G71D
notes: as for B2
Binder B8 has an EC50 (hCD3 (human CD3 antigen)) of 0.008 nM, an EC50 [3] of 0.862 nM and an EC50 (CD3 on 293T-CD3 cells) of 4.4 nM.

B9: CD3 Ab08 (antibody, human IgG1, kappa, V domains shown)
VH: B2 VH
VL: B2 VL with L77I, S78T
notes: as for B2
Work on B9 yielded an EC50 (hCD3 (human CD3 antigen)) of 0.0116 nM, an EC50 [3] of 1.82 nM and an EC50 (CD3 on 293T-CD3 cells) of 4.24 nM.

B10: CD3 Ab11 (antibody, human IgG1, kappa, V domains shown)
VH: B2 VH with V95M
VL: B2 VL with T82P
notes: as for B2
B10 gave an EC50 (hCD3 (human CD3 antigen)) of 0.0118 nM, an EC50 [3] of 4.45 nM and an EC50 (CD3 on 293T-CD3 cells) of 21.6 nM.

B11: CD3 Ab10 (antibody, human IgG1, kappa, V domains shown)
VH: B2 VH
VL: B2 VL with Q40E, T60V, G71D
notes: as for B2
In the case of B11, the EC50 (hCD3 (human CD3 antigen)) is reported as 0.002 nM, the EC50 [3] is reported as 0.784 nM and the EC50 (CD3 on 293T-CD3 cells) is reported as 2.44 nM.

B12: CD3 Ab03 (antibody, human IgG1, kappa, V domains shown)
VH: B2 VH with I80S
VL: B2 VL with L77I, S78T
notes: as for B2
With B12 the EC50 (hCD3 (human CD3 antigen)) was 0.0042 nM, the EC50 [3] was 2.28 nM and the EC50 (CD3 on 293T-CD3 cells) was 10.1 nM.

B13: CD3 Ab01 (antibody, human IgG1, kappa, V domains shown)
VH: B2 VH with I80S
VL: B2 VL with T82P
notes: as for B2
With B13 the EC50 (hCD3 (human CD3 antigen)) was 0.0096 nM, the EC50 [3] was 3.3 nM and the EC50 (CD3 on 293T-CD3 cells) was 22.6 nM.

B14: CD3 Ab04 (antibody, human IgG1, kappa, V domains shown)
VH: B2 VH with I80S
VL: B2 VL with T60V, G71D
notes: as for B2
B14 showed an EC50 (hCD3 (human CD3 antigen)) of 0.0068 nM, an EC50 [3] of 1.18 nM and an EC50 (CD3 on 293T-CD3 cells) of 5.23 nM.

B15: CD3 Ab15 (antibody, human IgG1, kappa, V domains shown)
VH: B2 VH with V95M
VL: B2 VL with Q40E, T60V, G71D
notes: as for B2
Work on B15 yielded an EC50 (hCD3 (human CD3 antigen)) of 0.0099 nM, an EC50 [3] of 1.11 nM and an EC50 (CD3 on 293T-CD3 cells) of 3.48 nM.

B16: CD3 Ab14 (antibody, human IgG1, kappa, V domains shown)
VH: B2 VH with V95M
VL: B2 VL with T60V, G71D
notes: as for B2
Binder B16 has an EC50 (hCD3 (human CD3 antigen)) of 0.0087 nM, an EC50 [3] of 1.14 nM and an EC50 (CD3 on 293T-CD3 cells) of 5.73 nM.

B17: BK-D-08 (bispecific antibody, human IgG1, kappa)
heavy: QVQLVQSGAEVKKPGASVKVSCKASGYTFTNYYMKWVKQAPGQRLEWMGDLNPNNGDTFYNQKFKGRVTITVDKSASTAYMELSSLRSEDTAVYYCARTGRYEENAMDYWGQGTLVTVSSASTKGPSVFPLAPSSKSTSGGTAALGCLVKDYFPEPVTVSWNSGALTSGVHTFPAVLQSSGLYSLSSVVTVPSSSLGTQTYICNVNHKPSNTKVDKRVEPKSCDKTHTCPPCPAPEFEGGPSVFLFPPKPKDTLMISRTPEVTCVVVDVSHEDPEVKFNWYVDGVEVHNAKTKPREEQYNSTYRVVSVLTVLHQDWLNGKEYKCKVSNKALPASIEKTISKAKGQPREPQVYTLPPSREEMTKNQVSLTCLVKGFYPSDIAVEWESNGQPENNYKTTPPVLDSDGSFFLYSKLTVDKSRWQQGNVFSCSVMHEALHNHYTQKSLSLSPGKGGGGSGGGGSGGGGSQAVVTQEPSLTVSPGGTVTLTCRSSTGAVTTSNYANWVQQKPGQAPRGLIGGTNKRAPWTPARFSGSLLGGKAALTLSGAQPEDEAEYYCALWYSNLWVFGGGTKLTVLGGGGSGGGGSGGGGSEVQLVESGGGLVQPGGSLRLSCAASGFTFNTYAMNWVRQAPGKGLEWVARIRSKYNNYATYYADSVKDRFTISRDDSKNILYLQMNSLKTEDTAMYYCVRHGNFGNSYVSWFAYWGQGTLVTVSA
light: DIVLTQSPASLAVSPGQRATITCRASESVDSYGKSFMHWYQQKPGQPPKLLIYRASNLESGVPARFSGSGSRTDFTLTINPVEANDTANYYCQQNNEDPWTFGQGTKLEIKRTVAAPSVFIFPPSDEQLKSGTASVVCLLNNFYPREAKVQWKVDNALQSGNSQESVTEQDSKDSTYSLSSTLTLSKADYEKHKVYACEVTHQGLSSPVTKSFNRGEC
B17 was tested, and the EC50 [1] was 136 nM and the EC50 [2] was 0.368 nM.

B18: BK-D-01 (bispecific antibody, human IgG1, kappa)
heavy: B17 heavy with R44S, M48I, R67K, V68A, I70L, S84N, I669S, M684V
light: B17 light
For B18, the EC50 [1] was 62.5 nM and the EC50 [2] was 0.07 nM.

B19: BK-D-05 (bispecific antibody, human IgG1, kappa)
heavy: B17 heavy with L542I, S543T, P547T, M684V
light: B17 light
B19 gave an EC50 [1] of 71.4 nM and an EC50 [2] of 1.04 nM.

B20: BK-D-04 (bispecific antibody, human IgG1, kappa)
heavy: B17 heavy with T525V, G536D, P547T, I669S, M684V
light: B17 light
Work on B20 yielded an EC50 [1] of 18.2 nM and an EC50 [2] of 0.47 nM.

B21: BK-D-06 (bispecific antibody, human IgG1, kappa)
heavy: B17 heavy with Q505E, T525V, G536D, P547T, M684V
light: B17 light
B21 gave an EC50 [1] of 32.6 nM and an EC50 [2] of 0.908 nM.

B22: BK-D-09 (bispecific antibody, human IgG1, kappa)
heavy: B17 heavy with P547T, M684V
light: B17 light
B22 gave an EC50 [1] of 97.8 nM.

B23: BK-D-02 (bispecific antibody, human IgG1, kappa)
heavy: B17 heavy with R44S, M48I, R67K, V68A, I70L, S84N
light: B17 light with I2L, L4M, Q42L
B23 was tested, and the EC50 [1] was 80.3 nM and the EC50 [2] was 0.099 nM.

B24: BK-D-03 (bispecific antibody, human IgG1, kappa)
heavy: B17 heavy with I669S, M684V
light: B17 light with I2L, L4M, Q42L
With B24 the EC50 [1] was 111 nM and the EC50 [2] was 0.464 nM.
